# Source: patent US20240075137A1 (COMPUGEN, published 2024)
# Changes are numbered by the printed parent chain. Names may count otherwise. Like-named read-outs stand apart in the source and are kept apart here.
# T1: human PVRIG on cells (human, UniProt Q6DKI7 1-326)
# T1 construct: whole, on cells; over-expressed on HEK cells or endogenous on Jurkat and CD8 T cells; also called hPVRIG; HEK hPVRIG cells
# T1 sequence (looked up): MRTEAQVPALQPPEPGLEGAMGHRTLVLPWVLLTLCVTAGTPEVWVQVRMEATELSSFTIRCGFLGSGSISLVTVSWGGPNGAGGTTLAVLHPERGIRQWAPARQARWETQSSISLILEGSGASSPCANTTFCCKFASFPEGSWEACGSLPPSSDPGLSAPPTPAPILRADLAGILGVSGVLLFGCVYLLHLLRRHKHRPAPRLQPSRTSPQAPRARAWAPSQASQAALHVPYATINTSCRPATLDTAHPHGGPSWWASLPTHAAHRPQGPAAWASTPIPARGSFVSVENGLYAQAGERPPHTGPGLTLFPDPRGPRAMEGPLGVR
# T2: cynomolgus PVRIG on cells (cynomolgus, UniProt A0A2K5WVV8 41-322)
# T2 construct: whole, on cells; also called cPVRIG; expi cPVRIG cells
# T2 sequence: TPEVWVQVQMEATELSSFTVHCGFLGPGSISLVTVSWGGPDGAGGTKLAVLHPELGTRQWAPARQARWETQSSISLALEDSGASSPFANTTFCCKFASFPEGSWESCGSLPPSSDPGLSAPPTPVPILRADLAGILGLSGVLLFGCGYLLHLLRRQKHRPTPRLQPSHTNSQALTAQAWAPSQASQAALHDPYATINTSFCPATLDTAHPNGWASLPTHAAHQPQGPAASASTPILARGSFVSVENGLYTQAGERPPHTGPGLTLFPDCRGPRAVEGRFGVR
# T3: PVRIG (FACS-based competition assay of FIGS. 7 and 15) (Homo sapiens, UniProt Q6DKI7)
# T3 construct: made because the format of the assay is only described in U.S. Ser. No. 15/048,967; also called human PVRIG
# T3 sequence (receptor, looked up): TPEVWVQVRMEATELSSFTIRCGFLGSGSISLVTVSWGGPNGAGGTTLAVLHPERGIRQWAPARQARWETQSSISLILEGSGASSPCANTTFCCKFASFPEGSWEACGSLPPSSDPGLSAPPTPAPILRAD
# T4: human TIGIT on cells (human, UniProt Q495A1 22-141)
# T4 construct: also called Expi293 human TIGIT over-expressing cells
# T4 sequence: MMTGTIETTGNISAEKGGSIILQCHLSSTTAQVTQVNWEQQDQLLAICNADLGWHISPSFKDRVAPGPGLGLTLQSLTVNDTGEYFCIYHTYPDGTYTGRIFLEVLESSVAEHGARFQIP
# T5: Mouse TIGIT-His (mouse, UniProt P86176)
# T5 construct: also called mouse TIGIT monomer (prepared in-house)
# T5 sequence (soluble monomer with His tag, looked up): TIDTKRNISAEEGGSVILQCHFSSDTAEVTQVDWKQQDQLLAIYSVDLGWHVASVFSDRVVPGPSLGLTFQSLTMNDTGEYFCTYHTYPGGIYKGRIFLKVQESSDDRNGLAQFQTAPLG
# T6: human TIGIT ECD with C-terminal polyhistidine tag (human, UniProt Q495A1 22-141)
# T6 construct: in-house or Sino Biological; also called hTIGIT-HIS; human TIGIT-HIS
# T6 sequence: T4 sequence
# B1: CHA.7.548 (antibody, V domains shown)
# VH: EVQLQQSGPELVKPGASVKISCKASGYTFTDYSMNWVKQSHGKSLEWIGDITPNNGSPNYNQKFKDKATLTVDKSSSTVYMELRSLTSEDSAVYYCASLFFDYWGHGTTLTVSS
# VL: DIVMTQSPSSLSVSAGEKVTMSCKSSQSLLNSGNQKNYLAWYQQKPGQPPKLLIYGASTRDSGVPDRFTGSGSGTDFTLTITSVQAEDLAVYYCQNDHTYPYTFGGGTKLEIK
# B2: CHA.7.549 (antibody, V domains shown)
# VH: QVQLQQPGTELVKPGASVKLSCKASGFTFTTHWMHWVRQRPGQGLEWIGNIYPSNGGSNYNEKFKTKATLTVDRSSSTAYMHLSSLTSEDSAVYYCARRVNWDGYYFDYWGQGTTLTVSS
# VL: DIVMTQSQKFMSTSVGDRVSVTCKASQNVGTNVAWYQQKPGQSPKLLIYSASYRYSGVPDRFTGSGSGTDFTLTISNVQSEDLADYFCQQYNSYPLTFGGGTKLEIK
# B3: CHA.7.550 (antibody, V domains shown)
# VH: QVQLQESGTELVKPGASVKLSCKASGYTFTSYWIHWVKQRPGQGLEWIGNINPSNGGTNYNEKFKSKAALTVDKSSSTAYMQLSSLTSEDSAVYYCARRGLPYFFDYWGQGTTLTVSS
# VL: B2 VL with A25G, T31Y, L46A, I48V, Y53D, Y55H, T63A, D85E, G100A, I106L
# B4: CPA.9.103 (fab) (Fab, V domains shown)
# VH: EVQLVETGGGLIQPGGSLRLSCAASGFTVSSNYMSWVRQAPGKGLEWVSVIYSGGSTYYADSVKGRFTISRDNSKNTLYLQMNSLRAEDTAVYYCARGARPNGQYPYWGQGTLVTVSS
# VL: DIQLTQSPSFLSASVGDRVTITCRASHGIKSLFSWYQQKPGKAPKLLIYAASTLQTGVPSRFSGSASGTEFTLTISSLQPEDFATYYCLQLDSFPTWTFGQGTKVEIK
# notes: variant of CPA.9.059 screened as fab
# B5: CPA.9.101 (fab) (Fab, V domains shown)
# VH: B4 VH with R100P, P101L, N102F
# VL: B4 VL with L4M, F10S, G28A, K30A
# notes: as for B4
# B6: CHA.9.547.1 (antibody, human IgG4 S228P, kappa, V domains shown)
# VH: EVQLVESGGGLVQPGGSLRLSCAASGFTFSSYIMSWVRQAPGKGLEWVSTISGGGTNTYYADSVKGRFTISRDNSKNTLYLQMNSLRAEDTAVYYCAKWLLSYYAMDYWGQGTLVTVSS
# VL: DIQMTQSPSSLSASVGDRVTITCRASQNINVWLTWYQQKPGKAPKLLIYKASNLHTGVPSRFSGSGSGTDFTLTISSLQPEDFATYYCQQGQSYPYTFGQGTKLEIKR
# modifications: AF647 dye on the antibody in the FACS assay of FIG. 73
# notes: also called CHA.9.547.1.H4(S241P)
# B7: CPA.9.103 (antibody, human IgG4 S228P, kappa, V domains shown)
# VH: B4 VH
# VL: DIQLTQSPSFLSASVGDRVTITCRASHGIKSLFSWYQQKPGKAPKLLIYAASTLQTGVPSRFSGSASGTEFTLTISSLQPEDFATYYCLQLDSFPTWTFGQGTKVEIKR
# modifications: AF647 dye on the antibody in the FACS assay of FIG. 73
# notes: fab form is m92; also called CPA.9.103.H4(S241P)
# Assays:
# human PVRIG on cells [1] = target: T1, human PVRIG on cells; test: FACS, human PBMC, CD8+ T cells, 10ug/ml
# [2] = target: T2, cynomolgus PVRIG on cells; test: FACS, expi cPVRIG over expi parental cells, 3.3ug/ml
# [3] = target: T2, cynomolgus PVRIG on cells; test: as above; remark: listed apart in the source
# [4] = target: T3, PVRIG (FACS-based competition assay of …); test: FACS-based competition assay of PVRIG blocking; format and competitor not given
# human PVRIG on cells [5] = target: T1, human PVRIG on cells; test: FACS, human PBMC, CD8+ T cells, 10ug/ml; remark: listed apart in the source
# human PVRIG on cells [6] = target: T1, human PVRIG on cells; test: FACS, human PBMC, CD56 int. NK cells, 10ug/ml
# human PVRIG on cells [7] = target: T1, human PVRIG on cells; test: FACS, HEK hPVRIG cells (HEK OE)
# human PVRIG on cells [8] = target: T1, human PVRIG on cells; test: FACS, human PBMC, CD56 int. NK cells, 10ug/ml; remark: listed apart in the source
# [9] = target: T2, cynomolgus PVRIG on cells; test: FACS, cyno PBMC, NK cells, 10ug/ml
# [10] = target: T2, cynomolgus PVRIG on cells; test: FACS, cyno PBMC, CD8+ T cells, 10ug/ml
# [11] = target: T3, PVRIG (FACS-based competition assay of …); test: FACS-based competition assay of PVRIG blocking; format and competitor not given; remark: listed apart in the source
# human PVRIG on cells [12] = target: T1, human PVRIG on cells; test: FACS, HEK hPVRIG over HEK parental cells, 3.3ug/ml
# human PVRIG on cells [13] = target: T1, human PVRIG on cells; test: FACS, Jurkat cells, relative to control, 3.3ug/ml
# [14] = target: T2, cynomolgus PVRIG on cells; test: FACS, cyno PBMC, NK cells, 10ug/ml; remark: listed apart in the source
# [15] = target: T2, cynomolgus PVRIG on cells; test: FACS, cyno PBMC, CD8+ T cells, 10ug/ml; remark: listed apart in the source
# cyno TIGIT on cells [16] = target: T7, cyno TIGIT on cells (cynomolgus macaque); test: flow cytometry of fab; MFI on cyno TIGIT over-expressing Expi293 / MFI on parental Expi293
# T7 construct: whole, on cells; also called Expi293 cyno TIGIT over-expressing cells
# human TIGIT on cells = target: T4, human TIGIT on cells; test: flow cytometry of fab; MFI on human TIGIT over-expressing Expi293 / MFI on parental Expi293
# Cyno TIGIT-His = target: T8, Cyno TIGIT-His; test: SPR (ProteOn), Cyno TIGIT-His
# T8 construct: also called cyno TIGIT monomer (prepared in-house); C-terminal HIS-tagged cyno TIGIT ECD recombinant protein
# T8 sequence (ECD with C-terminal His tag, as listed by the source): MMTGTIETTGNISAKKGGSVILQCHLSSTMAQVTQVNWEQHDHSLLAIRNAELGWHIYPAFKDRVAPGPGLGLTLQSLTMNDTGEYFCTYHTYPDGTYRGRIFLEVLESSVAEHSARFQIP
# cyno TIGIT on cells [17] = target: T7, cyno TIGIT on cells; test: FACS titration of AF647-labelled mAb on cyno effector memory CD8+ T cells, Cyno Donor 3; isotype gMFI subtracted
# Mouse TIGIT-His = target: T5, Mouse TIGIT-His; test: SPR (ProteOn), Mouse TIGIT-His
# cyno TIGIT on cells [18] = target: T7, cyno TIGIT on cells; test: FACS titration of AF647-labelled mAb on cyno effector memory CD8+ T cells, Cyno Donor 1; isotype gMFI subtracted
# [19] = target: T6, human TIGIT ECD with C-terminal …; test: SPR (ProteOn), Human TIGIT-His
Binder,gMFIr Human CD8+ T cells (human PVRIG on cells [1]),gMFIr Expi cyno OE/par [2],gMFIr Expi cyno OE/par [3],IC50 [4] [nM],gMFIr Human CD8+ T cells (human PVRIG on cells [5]),gMFIr Human CD56 int. NK (human PVRIG on cells [6]),EC50 (human PVRIG on cells [7]) [nM],gMFIr Human CD56 int. NK (human PVRIG on cells [8]),IC50 [11] [nM],gMFIr HEK OE/par (human PVRIG on cells [12]),gMFIr Jurkat (human PVRIG on cells [13]),further results
B1,3.35,4.25,4.25,19,3.35,3.15,0.27,3.15,19,45.3,7.37,gMFIr Cyno NK cells [9]: 1.18; gMFIr Cyno CD8+ T cells [10]: 1.09; gMFIr Cyno NK cells [14]: 1.18; gMFIr Cyno CD8+ T cells [15]: 1.09
B2,1.42,1,1,36.1,1.42,3.05,2.6,3.05,36.1,29.7,2.23,–
B3,1.29,0.9,0.9,58.3,1.29,1.6,1.34,1.6,58.3,27.7,2.1,–
B4,–,–,–,–,–,–,–,–,–,–,–,MFIr (OE/Par) cTIGIT (cyno TIGIT on cells [16]): 30; MFIr (OE/Par) hTIGIT (human TIGIT on cells): 95
B5,–,–,–,–,–,–,–,–,–,–,–,MFIr (OE/Par) cTIGIT (cyno TIGIT on cells [16]): 22; MFIr (OE/Par) hTIGIT (human TIGIT on cells): 130
B6,–,–,–,–,–,–,–,–,–,–,–,Kd (Cyno TIGIT-His): 1.13 nM; Kd (cyno TIGIT on cells [17]): 19 nM; binding result (Mouse TIGIT-His): no binding (tested: not printed); Kd (cyno TIGIT on cells [18]): 25 nM
B7,–,–,–,–,–,–,–,–,–,–,–,Kd [19]: 0.0064 nM; Kd (Cyno TIGIT-His): 0.337 nM; Kd (cyno TIGIT on cells [17]): 25 nM; Kd (Mouse TIGIT-His): 25 nM; Kd (cyno TIGIT on cells [18]): 31 nM
